The source of these data is the RNAGym collection of RNA variant scans (doi:10.1093/nar/gkz1192).

First the molecules themselves.
B1: CPEB3 Ribozyme (parent)
chain: UAACAGGGGGCCACAGCAGAAGCGUUCACGUCGCAGCCCCUGUCAGAUUCUGGUGAAUCUGCGAAUUCUGCUGUAUAUCUC

Variants of B1 are the subject of this data set. The data set can be described thus: self-cleavage, relative activity (ratio to wild type); higher = more cleavage; in vitro, sequencing. A digest of the protocol:
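After error-prone PCR and barcoding, CPEB3 ribozyme mutant libraries were transcribed with T7 RNA polymerase at 37°C for 5 hours, then given 15 min with DNase I before an EDTA stop, and they cleaved during both steps. Reverse transcription with template switching preceded Illumina sequencing. Relative activity divides a variant's cleaved/total read fraction by the unmutated ribozyme's. At least 5 reads were required per variant, and three batches were averaged.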
Regarding U31G A65G, the self-cleavage amounted to 0.22. As to U31C U43G, the self-cleavage is 0.36.

On to U31C U43C, for which the self-cleavage worked out at 0.49.

With U31C U43A, the self-cleavage was 1.03.

Consider U31G A56G, for which the self-cleavage worked out at 0.45. The figure for C32A C68U is 0.22; for U31G C39U it is 0.34; for U31C U76G it is 0.8. On to U31C U76C, for which the self-cleavage was 0.88. For the variant U31C U76A, the self-cleavage is 0.77. On to C32A U72C, for which the self-cleavage is 0.17. Under C32A U72G stands 0.19. The figure for C32A U72A is 0.12; for U31G A45C it is 0.33; for U31G A45G it is 0.37. Take U31G A45U: the self-cleavage stood at 0.57.

On to C32U C59U, for which the self-cleavage was found to be 0.12.

As for C32G A57G, the self-cleavage amounted to 0.1.

Consider U31C A64U, for which the self-cleavage is 0.31. Under U31C A64C stands 0.14; under U31C A64G, 0.64; under C32G A56G, 0.12. The figure for C32U U60C is 0.18; for C32U U60A it is 0.21; for C32U U60G it is 0.4.

Turning to U31C G63U, the self-cleavage was determined as 0.8. Under U31C G63A stands 0.67. Take U31C A57G: the self-cleavage came to 0.75. Regarding U31C A57C, the self-cleavage was determined as 0.49.

On to U31C A57U, for which the self-cleavage was 0.47.

On to U31C C39A, for which the self-cleavage was 0.18. The figure for C32A U74C is 0.22; for C32U A65U it is 0.13. Regarding C32U A65G, the self-cleavage worked out at 0.21. Take U31G U69A: the self-cleavage turned out to be 0.22. The figure for U31G U69C is 0.18. U31C U54C: the self-cleavage came to 0.8. Consider U31C U54A, for which the self-cleavage was found to be 0.92. The figure for U31C U54G is 0.68; for U31G it is 0.5. On to C32U C39A, for which the self-cleavage came to 0.15.

On to C32U G46A, for which the self-cleavage came out at 0.15. The figure for C32U C81U is 0.37; for C32A U80A it is 0.37; for C32A U80C it is 0.69. On to C32A U69C, for which the self-cleavage is 0.07. The figure for C32A U69A is 0.18; for U31C G52A it is 1.06. The figure for U31C G52C is 1.14; for G33A A65C it is 0.11; for G33A A65G it is 0.35.

In the case of U31C C68A, the self-cleavage came out at 0.28. For the variant U31C C68U, the self-cleavage came out at 0.75. Regarding U31G C62G, the self-cleavage is 0.15. The figure for C32A G73A is 0.49; for C32A G73C it is 0.17; for U31C G46U it is 0.23. Under U31C G46A stands 0.15; under U31C C40A, 0.2. Under U31C C40U stands 0.49. As to C32G U51A, the self-cleavage was 0.04. As to C32G C40U, the self-cleavage was found to be 0.22.

On to U31G C44U, for which the self-cleavage was 0.16.

Regarding C32U G63A, the self-cleavage turned out to be 0.46. The figure for C32G U67C is 0.09.

On to C32A C34G, for which the self-cleavage was determined as 0.44. The figure for U31C U78A is 0.86; for U31C U78G it is 0.84. The figure for U31C U78C is 0.87.

With C32A U51C, the self-cleavage was 0.29. For the variant C32A U51A, the self-cleavage was 0.24. The figure for C32A U51G is 0.31; for C32A G63A it is 0.4; for C32U G61C it is 0.18. Under C32A A45U stands 0.35; under C32A A45G, 0.32; under C32A A64G, 0.1. The figure for C32U U41C is 0.26. Turning to C32U U41A, the self-cleavage amounted to 0.27. Under U31C G61C stands 0.14; under U31C U80G, 1.13; under U31C U80A, 1.01. With U31C U80C, the self-cleavage was found to be 0.96. For the variant C32U U76A, the self-cleavage was 0.18. Under C32U U76C stands 0.2; under U31G U74G, 0.99; under U31G U74C, 0.96.

In the case of U31G U74A, the self-cleavage was determined as 1.02. For C32G U41A, the self-cleavage was 0.32.

As for C32G U41G, the self-cleavage came to 0.11.

For the variant U31G G53A, the self-cleavage came to 0.18. The figure for C32U A56U is 0.19; for C32U A56G it is 0.17. Under U31G C32A stands 0.28; under U31G C32U, 0.22; under U31G U51C, 0.52. Under C32U G53A stands 0.27. With U31C A75G, the self-cleavage stood at 0.77. Take U31C A75U: the self-cleavage stood at 0.87. Consider U31C A75C, for which the self-cleavage was 1.1. The figure for C32U G42A is 0.19; for C32A G61A it is 0.19. The figure for C32U U43C is 0.25; for C32U U43A it is 0.43.

In the case of C32G U80A, the self-cleavage was determined as 0.1. The figure for C32G U80C is 0.08. Take C32U U58A: the self-cleavage is 0.14. The figure for C32U U58C is 0.35; for C32A C38A it is 0.25.

In the case of C32A C38G, the self-cleavage was found to be 0.18. Consider C32U C79A, for which the self-cleavage worked out at 0.22. Take U31C C44A: the self-cleavage was found to be 0.4. Consider U31C C44G, for which the self-cleavage was found to be 0.31. For the variant U31C C44U, the self-cleavage stood at 0.26. The figure for U31G G52A is 0.74.

As to C32G U78C, the self-cleavage amounted to 0.09. For C32A G70U, the self-cleavage was found to be 0.12.

For U31G A64G, the self-cleavage worked out at 0.46. For the variant U31G C34U, the self-cleavage was 0.18. Under U31G C34A stands 0.14; under C32U U67C, 0.19. Consider C32U A35C, for which the self-cleavage turned out to be 0.18. The figure for C32U A35U is 0.32. Under C32U A35G stands 0.18. Under U31C A56G stands 0.67; under U31C A56U, 0.47.

For the variant U31C U66A, the self-cleavage stood at 0.28.

For the variant U31C U66C, the self-cleavage is 0.27.

U31C U66G: the self-cleavage turned out to be 0.35. The figure for G33A A77U is 0.23; for G33A A77G it is 0.18; for U31C U48A it is 0.39. Under U31C U48C stands 0.37; under U31C U67C, 0.26; under U31C U67A, 0.34.

On to C32U U69C, for which the self-cleavage is 0.17.

As for C32U U69A, the self-cleavage was found to be 0.23. C32U U72C: the self-cleavage amounted to 0.4. On to C32U U72A, for which the self-cleavage stood at 0.11.

On to U31C C50U, for which the self-cleavage came to 0.82.

Take U31C C50A: the self-cleavage came to 0.67.

As to U31C G73A, the self-cleavage stood at 1.26.

In the case of C32A A56G, the self-cleavage was found to be 0.15. Under C32G C44U stands 0.12. The figure for C32A A57G is 0.24.

As to C32A A57U, the self-cleavage is 0.2. Under U31C G33A stands 0.21; under C32A U41C, 0.36; under C32A U41A, 0.27. Under U31C C38A stands 0.33; under U31C C38U, 0.98. The figure for U31C C38G is 0.16; for U31C A77U it is 0.86; for U31C A77G it is 0.94. For C32A U66C, the self-cleavage is 0.16. The figure for C32A C40A is 0.11; for C32A C40G it is 0.43. Under C32A C40U stands 0.2; under U31C A65G, 0.35; under U31C A65U, 0.25. For the variant U31G U49A, the self-cleavage came to 0.34. Consider U31G U49C, for which the self-cleavage is 0.26. As to U31C C62A, the self-cleavage was 0.23. On to U31C C62U, for which the self-cleavage was found to be 0.24. The figure for U31C C62G is 0.14.

Turning to C32U G70A, the self-cleavage came to 0.21. The figure for U31G U72G is 0.92.
